# From US20230414781A1 (BLISS BIOPHARMACEUTICAL HANGZHOU, published 2023)
# T1: B7-H3 on B7-H3-expressing cancer cells (UniProt Q5ZPR3 29-534, limits assumed)
# T1 construct: whole, on cells; Endogenous expression on tumour cell lines; also called B7-H3 expressing cells; CD276
# T1 sequence (looked up): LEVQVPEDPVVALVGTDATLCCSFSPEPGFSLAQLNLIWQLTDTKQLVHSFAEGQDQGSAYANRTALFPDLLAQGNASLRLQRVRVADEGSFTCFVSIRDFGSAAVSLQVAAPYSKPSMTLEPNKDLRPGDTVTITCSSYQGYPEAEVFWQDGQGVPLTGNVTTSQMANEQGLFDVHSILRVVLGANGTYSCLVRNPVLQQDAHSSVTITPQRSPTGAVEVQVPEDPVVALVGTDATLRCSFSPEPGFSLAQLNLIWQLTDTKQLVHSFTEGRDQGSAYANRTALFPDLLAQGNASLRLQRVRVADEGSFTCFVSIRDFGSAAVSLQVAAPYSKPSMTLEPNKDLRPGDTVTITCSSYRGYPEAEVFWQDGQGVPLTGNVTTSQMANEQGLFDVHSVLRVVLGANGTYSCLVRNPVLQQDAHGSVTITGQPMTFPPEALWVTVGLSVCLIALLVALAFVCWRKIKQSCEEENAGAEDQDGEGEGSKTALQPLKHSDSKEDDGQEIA
# B1: 27B4H4L3 antibody (antibody, human IgG1, kappa)
# heavy: EVQLVQSGAEVKKPGESLKISCKASGYTFTTYWIGWVRQMPGKGLEWMGIIYPGDGGSRYSPSFQGQVTISADKSISTAYLQWSSLKASDTAMYYCARGGNYISFPMYYWGQGTLVTVSSASTKGPSVFPLAPSSKSTSGGTAALGCLVKDYFPEPVTVSWNSGALTSGVHTFPAVLQSSGLYSLSSVVTVPSSSLGTQTYICNVNHKPSNTKVDKRVEPKSCDKTHTCPPCPAPELVGGPSVFLLPPKPKDTLMISRTPEVTCVVVDVSHEDPEVKFNWYVDGVEVHNAKTKPPEEQYNSTLRVVSVLTVLHQDWLNGKEYKCKVSNKALPAPIEKTISKAKGQPREPQVYTLPPSREEMTKNQVSLTCLVKGFYPSDIAVEWESNGQPENNYKTTPLVLDSDGSFFLYSKLTVDKSRWQQGNVFSCSVMHEALHNHYTQKSLSLSPGK
# light: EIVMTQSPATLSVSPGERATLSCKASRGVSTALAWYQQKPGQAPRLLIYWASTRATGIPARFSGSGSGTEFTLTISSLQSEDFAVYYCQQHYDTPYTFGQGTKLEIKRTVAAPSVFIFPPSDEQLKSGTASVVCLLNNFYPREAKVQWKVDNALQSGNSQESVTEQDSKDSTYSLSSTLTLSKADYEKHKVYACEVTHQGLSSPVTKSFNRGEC
# notes: also called 27B4H43L3
# B2: 27B4H4L3-MMAE (antibody, human IgG1, kappa)
# heavy: B1 heavy
# light: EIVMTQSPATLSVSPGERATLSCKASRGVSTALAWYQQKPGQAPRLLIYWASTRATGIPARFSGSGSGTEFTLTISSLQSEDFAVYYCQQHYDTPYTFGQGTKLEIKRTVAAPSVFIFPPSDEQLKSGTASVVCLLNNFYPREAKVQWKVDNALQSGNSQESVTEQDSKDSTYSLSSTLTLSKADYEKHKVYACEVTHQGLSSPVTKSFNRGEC
# modifications: may carry MC-Val-Cit-PAB-MMAE on an inter-chain disulfide cysteine; positions not given; MC-Val-Cit-PAB-MMAE drug-linker on cysteines of partially reduced inter-chain disulfide bonds; main peaks DAR2, DAR4, DAR6, minor DAR0 and DAR8; positions not given
# notes: a mixture of DAR species; also called ADC made of 27B4H4L3 antibody
# Columns and labels:
# [1] = biological target: T1, B7-H3 on B7-H3-expressing cancer cells; experiment: FACS on U87 (glioma) cells
# Protocol: (§1) Screening for B7-H3-expressing cells were performed using FACS with 27B4H4L3 antibody and MFI of 27B4H4L3 to those cells shown in Table 2. FACS assay was also used to exam and compare the binding capabilities of the 27B4H4L3 antibody, BH73 antibody, 27B4H4L3-MMAE and BH73-Eribulin to B7-H3-expressing cells. To perform the assay, target cells and samples were incubated at 4° C. for 1 h. After wash, samples and secondary antibody (goat pAb to human IgG (FITC) (Abcam, ab97224)) were incubated. FACS was performed on […] (BD, Accuri C6 Plus) and mean fluorescence intensity (MFI) was reported. Three cell lines (U87MG, BT-474 and HT-29) representing B7-H3 high- and low-expressing cells were used to compare binding capacities of different antibody constructs and ADCs.
# [2] = biological target: T1, B7-H3 on B7-H3-expressing cancer cells; experiment: FACS on HT-29 (colon) cells
# Protocol: as §1
# [3] = biological target: T1, B7-H3 on B7-H3-expressing cancer cells; experiment: FACS on BT-474 (breast) cells
# Protocol: as §1
Binder,MFI [1] [MFI],MFI [2] [MFI],MFI [3] [MFI]
B1,314000,69500,126000
B2,290000,65300,126000
